Measured values published in patent US12043671B2, “Antibodies targeting an amphiregulin-derived cell surface neo-epitope” (Gundersen Lutheran Medical Foundation, Inc., priority 2021, dated 2024).

Tests used:
[1] = molecular target: T1, peptide representing the neo-epitope of the ADAM17-cleavage product of human AREG (Homo sapiens, UniProt P15514); experiment: ELISA of rabbit IgG candidates against peptides representing cleaved and full length AREG; assay type: binding
T1 construct: host or cells: synthetic peptide
From the text: FIGS. 1A-1C. Isolation of antibodies that selectively recognize a peptide representing cleaved AREG. FIG. 1A: Schematic representation of the AREG cleavage and EGFR activation process, one consequence of which is the internalization of the small transmembrane fragment that remains cell-associated after TACE/ADAM17-mediated cleavage. FIG. 1B: Schematic representation of phage panning strategy using a peptide representing the cleaved AREG neo-epitope adhered to the well and a peptide representing the non-cleaved AREG region in the liquid phase.
Rabbit monoclonal IgG antibodies specific to cleaved-AREG were identified in contracted screening (Oak Biosciences Inc., Sunnyvale, CA, USA) using a recombinant Rabbit naïve phage display library (scFv format, VK-linker-VH) screening platform after four rounds of panning and ELISA validation. For panning, phage was selected against a peptide modeling the ADAM17-cleaved cell-associated epitope of AREG,^12 represented by the N-terminal region of THSMIDSSLSKI (SEQ ID NO: 2), and counter-selected against a peptide spanning this region (SMKTHSMIDSSLSKIAC; SEQ ID NO: 9), representing uncleaved AREG. […] GMF-1A3, referred to hereafter as simply “1A3”, was the antibody chosen for further characterization in this Example.

cleaved AREG = molecular target: T2, cleaved AREG (Homo sapiens, UniProt P15514); experiment: Immunohistochemistry on breast tumor tissue micro-array; settings: for proportion of tumors exhibiting medium/high intensity staining: 10 μg/mL
T2 construct: tissue US Biomax Inc; host or cells: breast disease spectrum tissue micro-array (formalin-fixed, paraffin-embedded)
T2 sequence (P15514 188-252): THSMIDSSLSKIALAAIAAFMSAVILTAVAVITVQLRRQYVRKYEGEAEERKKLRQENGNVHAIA
Method: A breast disease spectrum tissue micro-array was purchased from US Biomax Inc. (Derwood, MD, USA). The slides were deparaffinized in xylene and rehydrated by serial incubations in graded ethanol and then in water in a Histo-Tek® SL Slide Stainer (Sakura Finetek USA, Inc., Torrance, CA, USA). Antigen retrieval was performed in a steamer by boiling slides in a container of citrate buffer (pH 6.0) for 20 min, which was then removed for 15 min of cooling on the benchtop. Slides were washed in 1×Wash buffer (Dako Agilent, Santa Clara, CA, USA) and endogenous peroxidase was quenched by incubating with Dako Dual Endogenous Enzyme Block (S2003) for 10 min. Slides were washed in 1× Wash buffer, blocked (5% rabbit/10% goat serum in PBS), and immunostained with goat anti-AREG antibody (15 μg/mL; AF262, R&D Systems) or rabbit anti-cleaved AREG 1A3 antibody (10 μg/mL) overnight at 4° C. Slides were washed four times in 1× Wash buffer, followed by the incubation for 45 min at room temperature in 1:100 dilution of rabbit anti-goat immunoglobulins/HRP (Dako, P0160 or ready-to-use goat anti-rabbit HRP labeled polymer (Dako, K4003). The slides were washed twice in 1× Wash buffer and the color was developed with 3,3-diaminobenzidine tetrahydrochloride substrate chromogen system (K3468, DAKO, Santa Clara, CA, USA). Sections were washed with water and counterstained with hematoxylin, rinsed with water, dehydrated by serial ethanol washes to 100%, cleared and mounted in Permount (Thermo Fisher Scientific). The staining intensity was assessed semi-quantitatively using a four-point scale (negligible=0, low=1, medium=2, high=3) by two investigators working independently on blinded samples. Discordant scores were resolved by joint review.

cleaved Amphiregulin = molecular target: T3, cleaved Amphiregulin (Homo sapiens, UniProt P15514); experiment: Immunohistochemistry on multiple organ carcinoma tissue microarrays
T3 construct: tissue BioCoreUSA; host or cells: multiple organ carcinoma tissue microarrays (ten tumour types)
T3 sequence (P15514 188-252): T2 sequence (P15514 188-252)
Method: Two multiple organ carcinoma tissue microarrays were purchased from BioCoreUSA (Philadelphia, PA, USA). The slides were deparaffinized in xylene and rehydrated by serial incubations in graded ethanol and then in water in a Histo-Tek® SL Slide Stainer (Sakura Finetek USA, Inc., Torrance, CA, USA). Antigen retrieval was performed in a steamer by boiling slides in a container of citrate buffer (pH 6.0) for 20 min which was then removed for 15 minutes of cooling on the benchtop. Slides were washed in 1× Wash buffer (Dako Agilent, Santa Clara, CA, USA) and endogenous peroxidase was quenched by incubating with Dako Dual Endogenous Enzyme Block for 10 minutes. Slides were washed in 1× Wash buffer, blocked (5% rabbit/10% goat serum in PBS), and immunostained with goat anti-AREG antibody (15 μg/mL; AF262, R&D Systems) or rabbit anti-cleaved AREG 1A3 antibody (10 μg/mL) overnight at 4° C. Slides were washed four times in 1× Wash buffer, followed by incubation for 45 minutes at room temperature in 1:100 dilution of rabbit anti-goat immunoglobulins/HRP or ready-to-use goat antirabbit HRP labelled polymer (Dako). […] The staining intensity was assessed semi-quantitatively using a four-point scale (Negative=0, Low=1, Medium=2, High=3) by two investigators working independently on blinded samples. […]

- binding ratio of cleaved AREG to intact AREG as determined by ELISA ([1]; compared among the three antibodies): highest binding ratio
- cases with medium/high immunoreactivity (cleaved AREG; 138 breast cancer specimens): 70%
- proportion of tumors exhibiting medium/high intensity staining (cleaved AREG; ER-negative tumors (n=50)): 70%
- proportion of tumors exhibiting medium/high intensity staining (cleaved AREG; ER-positive tumors (n=88)): 69.3%
- neoplastic cells negative for immunostaining (cleaved Amphiregulin; 370 evaluable cores, ten tumor types): No neoplastic cells were negative
- tumors stained in the highest score for cleaved Amphiregulin (cleaved Amphiregulin; breast, prostate, liver and lung tumors): At least 50%
B1: 1A3: Rabbit monoclonal IgG specific to cleaved AREG; VH SEQ ID NO: 3, VL SEQ ID NO: 4 (antibody, V domains shown)
VH: QSVKESEGRLVTPGTPLRLTCTVAGYSLSRYHMCWVRQAPGKGLEWIGMIGGSGRTDYASWAKGRFTISKTSTTVDLKITSPTTEDTATYFCSTVYTDSDGDFWGPGTLVTVSS
VL: AELDMTQTPSSKSVPVGGTVTINCQASESVYSNDRLAWFQQKPGQPPKLLIYYASTLASGVPSRFKGSGSGTQFTLTISDLECADAATYYCQSCYDMSSYGVAFGGGTELEIL
modifications: 1A3 antibody, Heavy chain; 1A3 antibody, Light chain
- selectivity for cleaved AREG by ELISA ([1]; IgG format, cleaved vs uncleaved AREG peptide): selectivity for cleaved AREG was confirmed
